We go through 16 sequences from the DeepSol protein solubility set.

This series in a line: soluble on expression in E. coli; label from the status in PepcDB or PDB records.
On to “MNSTNSGPPDSGSATGVVPTPDEIASLLQVEHLLDQRWPETRIDPSLTRISALMDLLGSPQRSYPSIHIAGTNGKTSVARMVDALVTALHRRTGRTTSPHLQSPVERISIDGKPISPAQYVATYREIEPLVALIDQQSQASAGKGGPAMSKFEVLTAMAFAAFADAPVDVAVVEVGMGGRWDATNVINAPVAVITPISIDHVDYLGADIAGIAGEKAGIITRAPDGSPDTVAVIGRQVPKVMEVLLAESVRADASVAREDSEFAVLRRQIAVGGQVLQLQGLGGVYSDIYLPLHGEHQAHNAVLALASVEAFFGAGAQRQLDGDAVRAGFAAVTSPGRLERMRSAPTVFIDAAHNPAGASALAQTLAHEFDFRFLVGVLSVLGDKDVDGILAALEPVFDSVVVTHNGSPRALDVEALALAAGERFGPDRVRTAENLRDAIDVATSLVDDAAADPDVAGDAFSRTGIVITGSVVTAGAARTLFGRDPQ”, for which the “soluble on expression in E. coli” value is “soluble”.
The value for “SRRLLNDSTGRIYQRVGKEGEKLKEEPQDLDLVWPPRLNSSAEAPQSLHPSSRGVWNELPPQSGQFSGQYGTRSRTFQSQPHPTTSSNGMVVNKHSEGSHGGELPVVNSSAGSNCCTCNCQSTLQAILQELKTMRKLMQIQAVGTQNRQQPPISLICSQRTAVSRKRNKKKKVPPKTVEPLTVKQKPSGSEMEKKSVVASELSALQAAEHTSPEESRVLGFGIVLESPSSDPEVQLAEGFDVFMPKSQLDSILSNYTRSGSLLFRKLVCAFFDDKTLANSLPNGKRKRGLNDNRKGLDQNIVGAIKVFTEKYCTANHVDKLPGPRDWVQILQDQIKLARRRLKRGSEIADSDERLDGIALPPTVV” was “not soluble”.
The value for “SMEDPDQLYTTLKNLLAQIKSHPSAWPFMEPVKKSEAPDYYEVIRFPIDLKTMTERLRSRYYVTRKLFVADLQRVIANCREYNPPDSEYCRCASALEKFFYFKLKEGGLIDK” was “soluble”.
The result for “MNIAVASGKGGTGKTTVAVNLAASYAMQGLPVTLVDCDVEEPNAHLFVDARWQVRSLCGVPVPAIDPDRCLGESCRRCVEACRFKALAMLGGELLVFAELCHGCGLCELVCPAGVVGTASRPVGEVRQGVASCHVHGETCHMAFRDGVLRVGEAMATPLIKAVKRTAEDANATSHAGYGVTLWDCPPGTACATINALDEADFVVLVAESTAFGLHDLRLAVGLVCHLGLPHGIVINRFGMGDDRVATWAASEGIDVLGRLPFSLEAASRNAGGGLLLDASHDLEAAYRDLGARLLEKGIRSLEHHHHHH” reads “not soluble”; that for “MNITIVLGDKIPSIKYGGTQRVMWYLGKELNKRGHKVTFIAGKGSSCPFAKVIELDPSVNLNTQIPTDADIVHFNIPVPEGITKPHLLTIHGNGIPANADRNIVFVSRNHAQRLGSESFVYNGLDWDDYGPANLTLSRKNYHFLGKAAWKVKNIKGAIAVVQSIKNAQLDVLGGYRLNLKMGFRFTWNPRIHFHGMVDDSKKKVIIEQSKGLIFPVTWHEPFGLAITESLYFGAPVFGTPYGALPELVSPEVGFLTAHGQEMAEHIQSAQYSPKVCHEYARDLFNSSVMAEAYLKKYETVLNGEPLNKEVPHIIDIARRLPWD”, “not soluble”; that for “MRRRGKGGGSVFYHEGKGKWVAQLTWIDPATGRKVKREKHCETRKEAERALADMVVAQAKGLLTDPSRLTTRDFALDYLKRLEREGLRPNSIRLAQEELAHALPSLKDPKAHDPLGRMRLQEVKPVHVRAAVDRVAEAGYAPRTVGRVLMRLKALFREALRLELVARNPAEAVRLRLPKGEKTARALEPQEVARLLETAEASRSKDMALLLRLMLETGLRRGEALALQWRDIDLEAGELTVWRSWTKARGKGAFSEPKTPTAKRKVPLPRGLLLRLKARREELLERLTPKEVDGLFLVGGVKPVDPDAFNHYLRRLAERAGLGRVRVHDLRHTWATLALSRGVPLEVVSERLGHASPTITLNVYRHLLEEERRGWVLDLEELLYPAPRAQA”, “soluble”.
On to “MSLTTSPDARWTRRRTEKQRRLEQVRTLADGVVLPTDKIVAALEALLVSGDRVVLEGNNQKQADFLSRALAKVDPGKVHDLHMIMPSVGRAEHLDLFEQGIARKLDFSFAGTQSLRISQLLEDGLLEIGAIHTYIELYSRLVVDLIPNVVLAAGFMADRAGNIYTGPSTEDTPALIEPAAFSDGIVIVQVNQLVDDVSELPRVDIPASWVDFVVVADKPFYIEPLFTRDPRHIKPVHVLMAMMAIRGIYEKHNVQSLNHGIGFNTAAIELILPTYGESLGLKGKICRNWTLNPHPTLIPAIESGWVESVHCFGTELGMENYIAARPDVFFTGRDGSLRSNRQLCQLAGQYAVDLFIGATLQVDGDGHSSTVTRGRLAGFGGAPNMGHDPRGRRHATPAWLDMRQQNESGPDAYLERGKKLVVQMVETFQEGGKPTFVETLDAVEVAKKSGMPLAPIMIYGDDVTHLLTEEGIAYLYKARSLEERQAMIAAVAGVTVIGLRHNPKDTARMRREGLIALPEDLGIRRTDASREGHHHHHH”, for which the “soluble on expression in E. coli” value is listed as “not soluble”.
For “MPGINGAGPSNFFWQWRTDGEPVTEREHDSSRSASSANSPELPPPASPAESGRQRLLRSSALSRQTREWLEATPARVQGATPPAEARQSPEAQQAERIVQELVRGGADLNNVRTMLRNVMDNNAVAFSRVERDILLQHFPNMPMTGISSDSVLANELRQRLRQTVRQQRIQSSTPARLADSSSGSSQRSLIGRSTMLMTPGRSSSSSAAASRTSVDRHPQGLDLESARLASAARHNHSANQTNEALRRLTQEGVDMERLRTSLGRYIMSLEPLPPDLRRALESVGINPFIPEELSLVDHPVLNFSAALNRMLASRQTTTNSPELPPLASSAESGRRRLLRSPPLLSGQREWIEQSMRQEAEPQSSRLNRAVRLAVMPPQNENEDNVAYAIRLRRLNPGADVSRVVASFITDPAARQQVVNDIRAALDIAPQFSQLRTISKADAESEELGFRDAADHPDNATSCLFGEELSLSNPDQQVIGLAVNPTDKPQPYSQEVNKALTFMDMKKLAQYLADKPEHPLNRQRLDAKNIAKYAFKIVP”, the “soluble on expression in E. coli” value was “not soluble”.
For “MTEPIKEIAAKRSVEAVYTGGTVRWSANGQKLFSTCTNVVKVIDLADNTASYTIGDPEDELRITCTAVDKNRNRLLVAYNNQIIREYSIPLDPSTTKPELARTWKTIHTAPILVMEFNEEGHLLATGSADHIVKVWNLTEQQCTHTLKGPSVVSAILFGKHEKLVVGYIEGQLNLYNIMRGAPKKLVNTWKSHNSHITALLQVPDSRVVVALSRDQTMSIHETETQETLRVLPLYESIEGGAIGHNGNLFTVGEEGVVKEFVIETAKLVRKKRIASSNLDHLAYDVVSNRFLAISAEQNLIILDFENLKIARQIVGFHDEIYSCCLLGKDESHMAVASNTSEIRLYNTKTLDCQLIRGHTESVLSVVSPTWDTSLLASCSKDNSIIFWRLVTSPENDSCSTLVPVAAATGHANTVTALAISNTGRAPFLASVSTDCTIKLWGLGVSTKLKEVKIDAEKDFVEQLPKLTCSSTMVAHGKDVNCVDISESDALIATGGMDKLVKLWQVDTHKMQLGIAGTLSGHRRGVGDVKFAKNSHKLASCSGDMTIKIWNISEKSCLQTISGHSCAVFRVIFARNDSQLISADSAGIIKIWTIKTADCECSIDAHTDKIWSLSKNHNESEFVTAGTDGRIVVWKDVTEEKQKAEDNKRREAIEQDQTLTNLLSQKRYSEALVFALTLAKPFCAFKVINALMAEETPEELGSAIRRLDTRQIEILLQFTVKWNTNSRTSSVAQRVLYEIVHIVDPEELVSMPGAYGYIESFLPYTQRHMDRLDRAKQDVSLFDFVWRQMRSSV”, the “soluble on expression in E. coli” value was “not soluble”.
Regarding “MSLVRTALTIAGSDSGGGAGIEADLKTFTAFGVHGLVAITSVTAQNTQTVTAIHDIPPEVVSEQIRVVAEDIGVDAAKTGMLSNAEIIKAVAKTVKNYDFPLVVDPVMIAKSGAPLLREDAVDALIKYILPLATLVTPNRFEAEKLTGMEIRNVNDAKLAAKKIAEETGAKAVIVKGGHLEGKEAIDVLYHNGAYKLYRAPKVDGCTHGTGCSFSAAITANLAKGLSLEDAVSVAKEFITLGISTGHKIGHGHCPVNQSAWIEIPAEKWRIYEELTRAVREFERINPIKLIPEVGTNFVYALPFPYARTKEDVAGVKGRIVRVGNEVRAVGSVEFGASDHLARAILTFMRFYPKYRSAINVRYSEEIVELAKEQGFTVSFYDRREEPIEVKEKEGATIPWGIEVAVKRINKRPDVIYHLGDIGKEPMILIFGRNPREVLDKLRLLEGHHHHHH”, the “soluble on expression in E. coli” value was “soluble”.
For the sequence “MGSDKIHHHHHHMSGTAEVNPITVDVYLDITVENISTLKDLTVKFDNYDEDLHYVKEVTDNSVKVDGIIPGIYSVTVSGTAIDTENNEYYINGNSVNAALFKHGSALNIEVQGLKVSPLIFKEIYYCGSRPEKGGVYFRDQFYEIYNNSADILYLDGIYFANLTPGTATTKLPIWPEADGNNYAYGERVWKFPGNGTEYPLAPGESCIISQFAANHQLDIYNPQSPIDGSSSEFEFNMNNPNFPDQAAYDMQHVFYQGKAEMGSIPQYLTSVFGGAYVIFRVPEGEAWDPVNDENMKTTDLSKPNSNVYYAKIPIKYVLDAVEAVNNESKMNAKRVPGVLDAGITWVGATYCGLGIARKLSTDEEGNPIIREETGTYIYQDTNNSTDDFERGVVPVMRRNGAKMPSWNHTL”, the “soluble on expression in E. coli” value was “not soluble”.
The result for “MAKNSPQDLINREIFSTNLNMLMAKKNIKQIDIHNKLGIPKSTITGYVKGRSLPTAGNVQKLADFFGVLKSDIDPRFDSNNIETNSNIIPSTLQKVTSTLSQLEHKRQLNVLDYAETQLEQQNTVEEPQATYYTYNYYDHAASAGTGQYLNDVQVETIELPVDYDADFVIPVYGDSMEPEYHSGDYVFIKLSINLSDGDIGVFEYYGDAYIKQLVINDSGAFLHSLNDKYDDILIDRDSDFRIIGEVIGSFTSKS” reads “not soluble”; that for “MSLYSNESAIQLISLARSIDQLQKIDSVVSFHDGAQLDALTIANALELPFSLSMGAIVNTRDKQLSRRILREKNLTEVQSAIAENEQDLHDFFKIYPQVNKVIVKPVAGTGSENVRSLESKELETANLDNVYPVLVEQFVEGREFSVEAFMQEGKCHIFAITEKFKDAQSFIETGHLVPARLSSDEHEKIAAFIAKVLPALGVVSGITHSEIMLGEKIELIETHTRVGGDRIFDLVQMTTGIDMYRLQALQSLGLPIGEDELTPKLNGKHACIKFKLNDHPGKKVIRVNGEEEIKNWSGVEDVSITHQAGEVLPQIVNSFDRSASVLVLCDSSEQALSIAEEAIQKLEFVVGEGHHHHHH”, “not soluble”; that for “MCMRRTLYRLMIELTNGRFTSYILRKFAQSRLSSIIIPSYVKVFQINQDEMEKGLKEYRTLHELFTRKLKEGKRSIDTDASSIVSPVDGVFADYGPIEDAKTFDIKGKRYSIVDMLGNEERAQRYAGGTYMVIYLSPSHYHRIHSPLSGSVTERFVLGRKSYPVNAAGMEYGKEPLSKNYRSVTEVNSDGEHMALVKVGAMFVNSIELLHERDTVQKGEEMAYFTFGSTVVLLFEKDMIEVVQELKSGQELRLGEKIATRLAHKMAGDPLEHHHHHH”, “soluble”.
The result for “MKEYRIDDLAREARVSVRNVRVYQDRGLLPPPRKQGRTGWYNESHLARLHLIGRMLDRGYTFATISELLTAAHYGLQVKDVLETDDPGSRWKKRRRAARLTIAELKRMFGAQTTEANIAKGTELGVLVPAGDDYSVNDPRLVEAAQVLVDAGIPLEAVLEQTAAVRRDLSDVAARFVAVVADRYLAAEGEPLELDEAKVSEIARLVDQMRPLAHDAVQSLFEEAMEEQISKALERAARQLGETPGPATSTDTNRAS” reads “not soluble”; that for “GPGSMAAMASRALISSPSHLLQKFDSCRTIFMCCDIQEKLRNRIPNFQAAVDVSNSMATIHNTLTPKHSTFVVTEQYPKGVGHVAKDITLPEGTPVIEKLQPSMLVPEMMPYIDGDAARGILPVQQAVLWGHETHVCVLQTADELLSRNIRVAVLVDGCASQQQLDHDVAIQEMAGWENLTLTTTISVLLQLSRGDRWIRGALMKVVKPKWADPSRFPSLPADGERPKA”, “soluble”.
